Reference: paper PMC7005713, “Revisiting the pH-gated conformational switch on the activities of HisKA-family histidine kinases” (Nature Communications, 2020)
Substitutions are numbered along the chain they refer to. Names may count otherwise.

B1: RR468 wild type, bound to the phosphomimetic BeF3- (natural protein, Thermotoga maritima)
chain: MSKKVLLVDDSAVLRKIVSFNLKKEGYEVIEAENGQIALEKLSEFTPDLIVLDIMMPVMDGFTVLKKLQEKEEWKRIPVIVLTAKGGEEDESLALSLGARKVMRKPFSPSQFIEEVKHLLNE
modifications: phosphomimetic BeF3- bound to the phosphoacceptor D53
notes: Response regulator RR468 of Thermotoga maritima; BeF3- was formed in the crystallisation mixture from 30 mM NaF, 5 mM BeSO4 and 7 mM MgCl2; source: E. coli BL21-CodonPlus(DE3)-RIL, purified (70 °C heat step, HisTrap HP, TEV digestion, Superdex 75)
B2: RR468 D53A (natural protein, Thermotoga maritima)
chain: B1 chain with D53A
notes: Response regulator RR468 of Thermotoga maritima cloned in pET22b, with the phosphoacceptor Asp53 changed to Ala; lacks a Histag; source: E. coli BL21-CodonPlus(DE3)-RIL, purified (70 °C heat step, Mono Q, Superdex 75)
B3: HK853, complete cytoplasmic portion (DHp and CA domains), wild type (domain or fragment, Thermotoga maritima)
chain: VENVTESKELERLKRIDRMKTEFIANISHELRTPLTAIKAYAETIYNSLGELDLSTLKEFLEVIIDQSNHLENLLNELLDFSRLERKSLQINREKVDLCDLVESAVNAIKEFASSHNVNVLFESNVPCPVEAYIDPTRIRQVLLNLLNNGVKYSKKDAPDKYVKVILDEKDGGVLIIVEDNGIGIPDHAKDRIFEQFYRVDSSLTYEVPGTGLGLAITKEIVELHGGRIWVESEVGKGSRFFVWIPKDRAGEDNRQDN
notes: Sensor histidine kinase HK853 of Thermotoga maritima, complete cytoplasmic (catalytic) portion with DHp and CA domains; source: E. coli BL21-CodonPlus(DE3)-RIL, purified (70 °C heat step, HisTrap HP, TEV digestion, Superdex 200)
B4: HK853 H260A, complete cytoplasmic portion (domain or fragment, Thermotoga maritima)
chain: B3 chain with H29A
notes: ADP was added for crystallisation; Same limits as m1; source: E. coli BL21-CodonPlus(DE3)-RIL, purified (70 °C heat step, HisTrap HP, TEV digestion, Superdex 200)

Legend:
[1] = biological target: B3; test: crystal structure; HK853 (10 mg/ml) and RR468 (7.5 mg/ml) with 4 mM ADP, 30 mM NaF, 5 mM BeSO4, 7 mM MgCl2; sitting drops at 21 °C; 1.8 M (NH4)2SO4, 0.1 M sodium citrate; four structures at pH 5.5, 6.5, 7 and 7.5; details: both partners purified
[2] = biological target: B4; test: crystal structure; HK853 H260A and RR468 D53A with 4 mM ADP; sitting drops at 21 °C; pH 7.5: 1.8 M (NH4)2SO4, 100 mM sodium citrate; pH 5.3: 1.2 M (NH4)2SO4, 100 mM Bis-Tris; two structures; details: both partners purified
[3] = biological target: B3; test: crystal structure; HK853 wild type and RR468 D53A with 4 mM ADP; sitting drops at 21 °C; pH 7: 1.8 M (NH4)2SO4, 100 mM sodium citrate; pH 5.3: 1.2 M (NH4)2SO4, 100 mM Bis-Tris; two structures; details: both partners purified
[4] = biological target: the molecule itself; test: crystal structure; HK853 (10 mg/ml) and RR468 (7.5 mg/ml) with 4 mM ADP, 30 mM NaF, 5 mM BeSO4, 7 mM MgCl2; sitting drops at 21 °C; 1.8 M (NH4)2SO4, 0.1 M sodium citrate; four structures at pH 5.5, 6.5, 7 and 7.5
[5] = biological target: the molecule itself; test: crystal structure; HK853 H260A and RR468 D53A with 4 mM ADP; sitting drops at 21 °C; pH 7.5: 1.8 M (NH4)2SO4, 100 mM sodium citrate; pH 5.3: 1.2 M (NH4)2SO4, 100 mM Bis-Tris; two structures

B1: binds [1].

B2: binds [2]; binds [3].

B3: binds [4].

B4: binds [5].
